Test results from the nanobody polyreactivity screen of Harvey et al. (2022).

Experiment: yeast display, Sf9 membrane polyspecificity reagent, FACS + sequencing; frameworks hold sequencing errors
Procedure, shortened: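 Sorting gates, low and high (top ~1%), were placed on anti-HA fluorescence to track expression and on streptavidin fluorescence to track reagent binding. A clone's polyreactivity label is taken from the gate it came out of. The reagent was 10% biotinylated, detergent-solubilized Sf9 membrane, applied for 1 hour at 4 °C to galactose-induced yeast display cells.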

Sequence	polyreactivity (PSR sort gate)
QVQLVESGGGLVQAGGSLRLSCAASGRIFQSNAMGWYRQAPGKEREFVARISKRGGSTYYADSVKGRFTISRDNAKNTVYLQMNSLKPEDTAVYYCAVRRHDRGTMGYWGQGTQVTVSS	low polyreactivity
QVQLVESGGGLVQAGGSLRLTCAASGLTFLVYALGWYRQEPGKEWEFVATISKSGGRTYYADSVKGRFTISRDNAKNTVYVQMNSLKPEHTAVDYCAAKGYPYGRLWCGYYRYDYWGQGTQVTVSS	high polyreactivity
QDQLVESGGGLVQAGGSLRLSCAASGFIFGGYAMGWYRQAPGKERELVAAISSSGGSTYYADSVKGRFTISRDNAKNTVYLQMNSLKPEDTAVYYCAKVGWSRRYYYWGQGTQVTVSS	high polyreactivity
QVQLVESGGGLVQAGGSLRLSCAASGSIFGWYAMGWYRQAPGKERELVAAISSSDGSTYYADSVKGRFTISRDNAKNTVYLQMNSLTPEDTAVYYCAKVYIRQNLAPYGYWGQGTQVTVSS	low polyreactivity
QVQLVESGGGLVQAGGSLRLSCAASGFTFYRYAMGWYRQAPGKERELVAAITSAGSTYYADSVKGRFTISRDNAKNTVYLQMNSLKPEDTAVSYCNAVGYFSYRDRDSEYYYNYGSWGQGTQVTVSS	low polyreactivity
QVKLVESGGGLVQAGGSLRLSCAASGFIFAHYAMGWYRQAPGKERELVAAIRGGDGSTDYADSVKGRFTISRDNAKNTVYLQMNSLIPEDTAVYYCAKRGKRSRGVGGNYWGQGTQVTVSS	low polyreactivity
QVQRVESGGGLVQAGGSLRLSSADSGSTLSGYAMGWYRQAPGKERELVATIRITGGRTYYADSVKGRFTISRDNAKNTVYLQMNSLKPEDTAVYYCNVRSRRRVSSYDYWGQGTQVTVSS	high polyreactivity
QVQLVESGGGLVQAGGSLRLSCAASGTFTVNTMGWYRQAPGKVRELVAAISTGDTTTYADSVKGRFTISRDNAKNTVYLQMNSLKPEDTAVYYCIVDIGVYAYESDYWGQGTQVTVSS	low polyreactivity
QVHVVESGGGLVQAGGSLRLSCAASGSSFYHYAMGWYRQAPGKERELVAAISGSGGSTYYADSVKGRFTISRDNAKNTVYLQMNSLKPEDTAVYYCAADTSRYHYTRYFFDSDYWGQGTQVTVSS	low polyreactivity
QVQLVESGGGLVQAGGSLRLSCAASGSIFDRNAMGWYRQAPGKERELVAAISFSGGSTYYADSVKGRFTISRDNAKNTVYLQMNSLKPEDTAVYYCAKAGRYANLPYVYWGQGTQVTVSS	high polyreactivity
QVQLVESGGGLVQAGGSLRLSCAASGYIFGLYAMGWYRQAPGKERELVASITGGGSTYADSVKGRFTISRDNAKNTVYLQMISLKPEDTAVYYCAAESTVRPYEHSGDYWGQGTQVTVSS	low polyreactivity
QVQLVESGGCLVQAGGSLRLTCAASGFIFPYYAMGWYRQAPGKERELVAGITGADSTYYADSVKGRFTISRDNAKNTVYLQMNSLKPEDTAVYYCARKRYSLSRTYNYGYWGQGTQVTVSS	high polyreactivity
QVQLVESGGGLVQAGGSLRLSCAASGRTFYVNDMGWYRQAPGKERELVAAISYRGGSTYYADSVKGRFTISRDNAKNTVYLQMNSLKPEDTAVYYCAAELTYRYRFYYLYSMYYWGQGTQVTVSS	low polyreactivity
QVQLVESGGGLVQAGGSLRLSCAASGRTFVRYAMGWYRQAPGKERELVAAITRRGGSTYYADSVKGRFTISRDNAKNTVYLQMNSLKPEDTAVYYCNKAVGVTGFDYWGQGTQVTVSS	high polyreactivity
QVQLVESGGGLVQAGGSLRLSCAASGFTLAGYAMGWYRQAPGKERELVSAITTSGGSTFYADSVKGRFTISRDNAKNTDYLKMNSLKPEDTAVYYCAAAIRTRTSYYRFDYWGQGTQVTVSS	high polyreactivity
QVQLVESGGGLVQAGGSLRLSCAASGSTFYRNSMGWYRQAPGKEREFVAAISFRGGGTYADSVKGRFTISRDNAKNTVYLQMNSLKPEDSAVYYCAADHQSYRRRYEYWGQGTQVTVSS	low polyreactivity
QVQLEESGGGLVQAGGSLRLSCAASGFIFWANAMGWYRQAPGKERELVAAIRYSGGRTYYADSVKGRFTSSRDTAKNTFFLLMNSLIPEDTAVYYCAKEYKNYGGFVVEYDYWGQGTQVNVSS	low polyreactivity
QVQLVESGGGLVQAGGSLRLSCAASGNTFDIYAMGWYRQAPGKERELVAAISRRGGSTYYADSVKGRFTISRDNAKNTVYLQMNSLKPEDTAVYYCNAKHKITHSSSDYWGQGTQVTVSS	high polyreactivity
QVQLVESGGGLVQAGGSLRLSCAASGIIFHIYAMGWYRQAPGTERELVAAISTGSSTYYADSVKGRFTISRDNAKNTVYLQMNSLKPEDTAVYYCNAVSRYLWVKGFDYWGQGTQVTVSS	low polyreactivity
QVQLVESGGGLVQAGGSLRLSCAASGSIFDTYSMGWYIQAPGKERELVAAISSGGRTYYADSVKGRFTISRDNAKNTVYLQMNSLKPEDTAVYYCNARYHARYGGDYWGQGTQVTVSS	high polyreactivity
QVQLVESGGGLVQAGGSLRLSCAASGRIFYYYAMGGYRQAPWKERELVATISRAGITNYADSVKGRFTISRANAKNTVYLQMNSLKPEDTAVYYCAATFYPWRYHYEYWGQGTQVTVSS	high polyreactivity
QVQLEDSGGGLVQAGGSLRLSCAASGFTFSYNAMGWYIQAPGKERELVAAISSRGTSTYYADSVKGRFTISRDNAKNTVYLQMNSLKPEDTAVYYCNTVPYFYLTFYPHYDYWGQGTQVTVSS	high polyreactivity

Sequence	polyreactivity (PSR sort gate)
QVQLVESGGCLVQAGGSLRLSCAASGNTFTSYAMGWYRQAPGKERELVAAISASGSSTYYADSVKGRFTISRDNAKNTVYLQMNSLKPEDTAVYYCNAVKYRVESSYDYWGQGTQVTVSS	low polyreactivity
QVQLVESRGVLDQARGSLRLSCAATGSIFKPYAMGWYRQEPGKEMELVAAISGIGGSTYYADSVKGRFTIARDNAKNTVYLQMNSLKPEVTAVYYCAALTGFYNLRPYGYWGQGTQVTVSS	high polyreactivity
QGQLVESGGGLVQAGGSLRLSCAASGFIFRYYTMGWYRQAPGKERELVAAITSRGGSTYYADSVKGRFTISRDNAKNTFYLQMNSLKPEDTAVYYCATTRWGYEYWGQGTQVTVSS	high polyreactivity
QVQLVESGGGLVQAGGSLRLSCAASGITFGANAMGWYRQAPGKERELVADITWSGGDTYYADSVKGRFTISRDTAKNTVYLQLHSLKPEDTAVYYCAVDTYIYTNRRYTKFDYWGQGTQVTVSS	low polyreactivity
QVQLVESGGGLVHAGGSLRLSCAPSGSIFTPYAMGWYRQAPAKDRELVADNTYRGGSTYYADSVKGRFTISRDNAKNSVYLQINSLKAEDSAVYYCNADVFTDYRHTRDDYWGQGTQVTVSS	low polyreactivity
QVQLVESGGGLVQAGGSLRLSCAASGLILPYYAMGWYRQAPGKERELVAAISRTGGRTSYADSVKGRFTISRDNAKNTVYLQMNSLKPEDTAVYYCAAVGQSGGRRYDYWGQGTQVTVSS	high polyreactivity
QVQLVESGGGLVQAGGSLRLSCAASGRIFPSNTMGWYRQAPGKERELVADISFGGGSTYYADSVKGRFTISRDNAKNTVYLQMNSLKPEDTAVYYCNADFGFGYVSLLYEYWGQGTQVTVSS	low polyreactivity
QVQLVESGGGLVQAGGSLRLSCAASGFTFYHNAMGWYRHAPGKERELVATITARGGRTYYADSVKGRFTISRDNAKNTVYLQMISLKPEDTAVYYCNVKASRGYTYEYDYWGQGTQVTVSS	high polyreactivity
QVQLVESAGGLVQAGGSLRLSCAASGIIFTSNTMGWYRQAPGKEREFVASINWNGSSTYADSVKGRFTISRDNAKNTVYLQMNSLKPEDTAVYYCAADWLGYQYGYWGQGTQVTVSS	low polyreactivity
QVQLVESGGGLVQAGGSLRLSCAASGFIFYRYAMGWSRQAPGKERELVAAISWGGGSTTYYADSVKGRFTISRDNAKNTVYLQMNSLKPEDTAVYYCAAYIGKGYGSEYYYWGQGTQVTVSS	low polyreactivity
QVQLVESGGGLVQAGGSLRLSCAASGITFAYYVMGWYRQAPGKERELVAAINWSGGSTYYADSVKGRFTISRDNAKNTVYLQMNSLKPEDTAVYYCAADWSTWYGEKFYWGQGTQVTVSS	high polyreactivity
QVQLQESAGGLVQAGGSLRLRCSASGYISCDASMGWYRQAPGKERELAASITKGSSTNYADSVKGRFTIRDNAKNTVYLQMNSLKPEDSAVCYCAVTYPYWGDYTYWGQGTQVTVSS	low polyreactivity
QVQLVESGGVLVQAGGSLRLSCAASGRIFRYNTMGWDRQAPGKERELVATITRGSSTNYADSVKGRFTISRDNAKNTVYLQMNSLKPEDTAVYYCAASVWKWHSYLGRYSYIGYDYWGQGTQVTVSS	high polyreactivity
QVQLVESGGGLVQAGGSLRLSCAASGITFLDNAMGWYRQAPGKERELVAAITSDGNTYYADSVKGRFTISRDNAKNTVYLQMNSLKPEDTAVYYCAARGFLKYVTEFDYWGQGTQVTVSS	low polyreactivity
QVQLVESGGGLVQAGGSLRLSCAASGSTFLVYDRGWYRQAPGKERELVAAITWSGGSTYYADSVKGRFTISRDNAKNTVYLQINSLTPEYTAVYYCAAEIHRTYSWEYPYEMYWGQGTQVTVSS	high polyreactivity
QVQLVESGGRLFQAGGSLRLSCAASRSIFSTYGKGWYRQPPGKERELVAAITSGVGRTNYADSVKGRFTISRDNAKNTVDLQMNSLKPEDTAVNYCAVRSLGTLDVYDLATEYDYWGQGTQVTVSS	low polyreactivity
QVQLVESGGGLVQAGGSLRLSCAASGSTSPFNAMGWYRQAPGKERELVASITSSGSTNYADSVKGLFTISRDNAKYTVYFQMNSLKPEDTAVYYCATEGVVSETIYDYWGQGSQVTVSS	low polyreactivity
QVQLVDSGGGLVQAGGSLRLSCAASGRIFYTNAMGWYIQEPGKERELVAAIDYSDSTTYYADSVKGRFTISRDNAKNTVYLQMNSLKPEDTAVYYCAAESYLYTVTFEYWGQGTQVTVSS	high polyreactivity
QVQLVESCGGLVQAGGSLSLSCAASGRILYYYAMGWYRQAPGKERELVAAITSGGSTYADSVKGRFTISRDNAKNTVYLQMNSLKPEDTAVYYCNADYTVYDTEYDYWGQGTQVTVSS	low polyreactivity
QVQLVESGVGLVQAGGSLRLSCAASGSIFPGYAMGWYRQAPGKEMELVAGITWSDARTYYADSVKVRFTISRDNAKNTVYLQMNSLKPEDTAVYYCAADYYYYERDYWGQGTQVTVSS	low polyreactivity
QVHLVESGGGLVQAGRTLRLICAASGFIFWRNTMGWYRQAPGKERELVAVITRGGSTYYADSVKGRFTLSRDNAKNTGYLQMNSLKPEDTAVYYCAARNDYYKTFSGYDYWGQGTQVTVSS	low polyreactivity
